B1: aP2 (recombinant aP2 of Example 1) (other)
chain: MCDAFVGTWKLVSSENFDDYMKEVGVGFATRKVAGMAKPNMIISVNGDLVTIRSESTFKNTEISFKLGVEFDEITADDRKVKSIITLDGGALVQVQKWDGKSTTIKRKRDGDKLVVECVMKGVTSTRVYERA
notes: Used unlabelled, and amine-biotinylated in the scintillation proximity assay; also called FABP4
B2: human aP2 (fatty acid-binding protein, adipocyte, FABP4/aP2, Homo sapiens) (other)
chain: CDAFVGTWKLVSSENFDDYMKEVGVGFATRKVAGMAKPNMIISVNGDVITIKSESTFKNTEISFILGQEFDEVTADDRKVKSTITLDGGVLVHVQKWDGKSTTIKRKREDDKLVVECVMKGVTSTRVYERA
notes: Biotinylated with Sulfo-NHS-LC-Biotin for the Octet cross-reactivity assay; also called haP2; hFABP4
B3: CA33 (Rabbit Ab 909) (antibody, V domains shown)
VH: QSVEESGGRLVTPGTPLTLTCTVSGFSLSTYYMSWVRQAPGKGLEWIGIIYPSGSTYCASWAKGRFTISKASTTVDLKITSPTTEDTATYFCARPDNDGTSGYLSGFGLWGQGTLVTVSS
VL: DVVMTQTPASVSEPVGGTVTIKCQASEDISRYLVWYQQKPGQPPKRLIYKASTLASGVPSRFKGSGSGTDFTLTISDLECDDAATYYCQCTYGTYAGSFFYSFGGGTEVVVE
notes: Rabbit variable regions; also called Rabbit Antibody 909; antibody 909
B4: GCGR extracellular domain (GCGR-ecd) (receptor, UniProt P47871 26-136, looked up)
chain: AQVMDFLFEKWKLYGDQCHHNLSLLPPPTELVCNRTFDKYSCWPDTPANTTANISCPWYLPWHHKVQHRFVFKRCGPDGQWVRGPRGQPWRDASQCQMDGEEIEVQKEVAK
notes: extracellular domain; also called glucagon receptor extracellular domain; not shown: Hexahistidine and WELQ protease site added during cloning; MST was run with tag and with

Experiments:
[1] = biological target: B4; test: binding curve, Response (ΔFnorm [‰]) against Ligand Concentration [nM]; table under the plot
[2] = biological target: B4; test: binding curve, Response (ΔFnorm [‰]) against Ligand Concentration [nM]; the table under the plot has no unit, nM is that of the axis; paragraph 390 names an Octet system; which partner is titrated is not given
[3] = biological target: T1, glucagon; test: binding curve, Response (ΔFnorm [‰]) against Ligand Concentration [nM]; table under the plot
T1 construct: This id is also used for the endogenous glucagon of mouse serum; also called biotin-glucagon; biotinylated glucagon

[4] = biological target: T1, glucagon; test: binding curve, Response (ΔFnorm [‰]) against Ligand Concentration [nM]; the table under the plot has no unit, nM is that of the axis; paragraph 390 names an Octet system; which partner is titrated is not given
[5] = biological target: T2, hFABP5/hMal1 (recombinant human FABP5, Sino Biological Inc.) (human, UniProt Q01469 1-135, limits assumed); test: Octet RED384, biotinylated human FABP on streptavidin biosensors, antibody at 800 nM
T2 construct: Biotinylated with Sulfo-NHS-LC-Biotin and loaded on streptavidin biosensors; also called FABP5/Mal1; Mal1/FABP5
Experimental: The recombinant human proteins aP2 (generated at UCB in E. coli (see method below)), hFABP3 (Sino Biological Inc.) and hFABP5/hMall (Sino Biological Inc.) were biotinylated in a 5-fold molar excess of EZ-Link® Sulfo-NHS-LC-Biotin (Thermo Fisher Scientific) and purified from unbound biotin using a Zeba desalting column (Thermo Fisher Scientific). All binding studies were performed at 25° C. using a ForteBio Octet RED384 system (Pall ForteBio Corp.). […] Biosensors were then transferred back to PBS-T for 5 min. to measure dissociation. Non-specific binding of antibodies was monitored using unloaded biosensor tips.

[6] = biological target: B2; test: Biacore T200, anti-aP2 IgG captured on anti-mouse IgG Fc, aP2 titrated over it; steady-state fit for CA33
[7] = biological target: glucagon/aP2 complex (glucagon plus aP2, Example 1) (Mus musculus (Mouse), UniProt P04117 1-132, limits assumed); test: BLI (BLItz): GCGR-ecd on biotin-glucagon immobilized on streptavidin sensors, in the presence of aP2

T1 sequence (peptide, as listed by the source): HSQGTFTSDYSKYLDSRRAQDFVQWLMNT
T2 sequence (Q01469 whole entry): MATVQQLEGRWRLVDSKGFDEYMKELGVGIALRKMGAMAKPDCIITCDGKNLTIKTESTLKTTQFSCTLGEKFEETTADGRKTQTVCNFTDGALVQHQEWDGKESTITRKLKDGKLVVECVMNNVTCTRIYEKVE

## B1
[1]
  logEC50: 2.51
[2]
  EC50: 327 nM

## B2
[3]
  logEC50: 1.31
[4]
  EC50: 20.3 nM

## B3
[5]
  binding result: no binding (tested: 800 nM)
[6]
  Kd: 2830 nM

## B4
[7]
  Kd: 54.1 nM

Reference: US20190135888A1 (Harvard, published 2019)
